Results: the DeepSol protein solubility set

Test: soluble on expression in E. coli; label from the status in PepcDB or PDB records

Row | Sequence | soluble on expression in E. coli
1 | MGSDKIHHHHHHMKYFVSRSIYTFNSGVEHSQANRTLLFNASGDQARYVTRDYNRLWVRDAERVNLNSTNVLNMYDFFQGTSAVECVQLPVREFKQLALNEYQLVEHGADYSTVDHAGRQLARINIMPGTVGLVGDIEYYDRFETVVSRENFDWRGFKSSIDYFHPDGSLGVRRFLNLAGEVVLENTYMNVEGQLQPTMWKLVNYHGKNYRFDTEDQLFLFFLNEVTQQTTDNVVVSDHRELDYVIADVENATSKWVALHGSHVDQGGTPFAAYSIALQIRAQDFDGIIVPTQEQQLELKEQFPELNVQVAPDVAISPELINSKPVWLRDRIAGRIIFSGRLEADKRPMEALKAFFKVLEQFLTLRWNLGDILTTKTC | not soluble
2 | ARSSRFTRQADETLTDSEGSGLQFINFDEGSASNPIIARDQEGSGQMYDEEGSGNTLLFDSETPIQVMNVTGTEAEPTDSKVFNQSINITDSDVETLVIKVHLPQKTTSQLLDDLKDDTAQQTNPINTLDTAVSLTSMLNELLGKIQDATTQ | not soluble
3 | GPLGSYGDAIPEVKAILEAKNEEELVTFTSRWSAEERKELRTQFQDTTGLEFIAFLKKCIKNGPYEDVMALGWDCNISARVNVIKKAMKNVNDFRAIHDVVLIATPDERLKLAQAYKEKTGNDLLQDFVDQIPLTSAASYLCHLAIRENRTPRGSVASDAEVLKHNLIDADEPDHEAVVRLIITSTADEYKEINHRFEVLTGKSVQEAIETRYADKENARGLCIAHYYNLAPARAVAYAFHSAVETQNDDMAYEQAARITGLFHDLHKFAWVHYACWGVMRDDILSRFQSKEANKVNFRDACLMFWKLAK | soluble
4 | MNIAALLSGGVDSSVVVHLLCEQGYKPTLFYIKIGMDGAEYMDCSAEEDIEMSTAIARKYGLSLEVVDLHKEYWENVAAYAIDKIKKGLTPNPDVMCNKLIKFGCFEQQVGKNFDFTATGHYATTIRQDGKTWLGTAKDPVKDQTDFLAQIDYLQVSKLMFPIGGLMKQEVREIASRAGLPSARRKDSQGICFLGKINYNDFVRRFLGEREGAIIELETGKKVGTHRGYWFHTIGQRKGLGLSGGPWFVIKKDVEENIIYVSHGYGVETQFGSEFRINDFHFITENPWKDAGKEIDITFKIRHTPEFTKGKLVQEEGGQFRILSSEKLQGIAPGQFGVIYDEEAGICVGSGEITRLEHHHHHH | soluble
5 | GMDVTIERVNDFDGYNWLPLLAKSSQEGFQLVERMLRNRREESFQEDGEAMFVALSTTNQVLACGGYMKQSGQARTGRIRHVYVLPEARSHGIGTALLEKIMSEAFLTYDRLVLYSEQADPFYQGLGFQLVSGEKITHTLDKTAFADSNR | soluble
6 | ASQFFFNQRTHLVSDVIDGAIIASPWNNLARLESDPAIRIVVRRDLNKNNVAVISGGGSGHEPAHVGFIGKGMLTAAVCGDVFASPSVDAVLTAIQAVTGEAGCLLIVKNYTGDRLNFGLAAEKARRLGYNVEMLIVGDDISLPDNKHPRGIAGTILVHKIAGYFAERGYNLATVLREAQYAASNTFSLGVALSSCHLPQETDAAPRHHPGHAELGMGIHGEPGASVIDTQNSAQVVNLMVDKLLAALPETGRLAVMINNLGGVSVAEMAIITRELASSPLHSRIDWLIGPASLVTALDMKGFSLTAIVLEESIEKALLTEVETSNWPTPVPPREITCVVSSHASARVEFQPSANALVAGIVELVTATLSDLETHLNALDAKVGDGDTGSTFAAAAREIASLLHRQQLPLNNLATLFALIGERLTVVMGGSSGVLMSIFFTAAGQKLEQGANVVEALNTGLAQMKFYGGADEGDRTMIDALQPALTSLLAQPKNLQAAFDAAQAGAERTCLSSKANAGRASYLSSESLLGNMDPGAQALAMVFKALAESELG | soluble
7 | MQAAVTVTPARLPELLLGLATVRPVFLWGAPGIGKSSLVRNFADSLGLECVSLLGTQLAPEDLIGVPQIRDGRSVFCPPESIARDEPYCLFLDELNAATPDVQKAFYSLILDRRIGNYELPKGSLVIGAGNRATDNALARPIASALVNRLTHVHLDASAKDWLVWAGENGIHPWITDHLTDRPDHLWSKPPKTEEPFSTPRSWHMLSDALHSFGQDLDEETLKVLAHGTLTPAHATAFCGYVKIVRSRFGIEAILKGEARWPSRIEDRDLLYYLAESFRGRLVKELPASKEHMSANGRQTAYRAKSLLVQLAEISVEVAQSVIASDADGNPLLPAWFLVEAARDMPRLVEARRLEHHHHHH | not soluble
8 | MTSTFDRVATIIAETCDIPRETITPESHAIDDLGIDSLDFLDIAFAIDKAFGIKLPLEKWTQEVNDGKATTEQYFVLKNLAARIDELVAAKGALEHHHHHH | soluble
9 | MGSDKIHHHHHHMVETKLIIRADDLGYSDAVNIGIERSVHKGIINNVGVMVNMPTTLDGLSMIRDTKVCLGLHVVISSGRPLLNPKFIPSIVDDDGAFLSSADYRKAPNDFVNLDEVILEIEAQYQKFIELVGRKPDYFEGHAVVSDNFFKGLLVVAKCHQLNLLQVTLNSGRPSLLFKGHSLHVFMESMNKDYNPYQTLKRAVLSSCDEEYPMMICHPGYLDDYLLKHSSLTTPRTKEVEMLTDPQVRAWLYQHQVRLIKYNEI | not soluble
10 | MSLKHRIEYAITNAVFVKADELSYLSFRVSGKVIEVYKDLGDYVKRGEALAKLDPTYYELEKRTLEKKMSALLEKKKALEIKIQKLEKGLHISLSAKKLKVESLKKKREALREKLLQVEEKIKLVKLDWERYKSLFQKGLIPRRKFEEVDTNLKVLLHEREYLEKSIQEINTEIKRAKKGIENARNEFKTIEELKKELSSLEEEIKSLKERIKTAEQKIKDTVLIAPFDGVVAKRFISRGDVVRAGQPAFALVNPESFYVEVLLEETKLKGVKVGNKAYVRLDAYPDILFEGVVEEISPASAATFALVPRDVSAGEFTKVVQRIPVKIKITKGDLSLLRVGMGGEVEIRRTREGHHHHHH | soluble
11 | MNTANFSAQQLQAERLLLLPSYILLKEGLVQDQAILVENGIFQDIGTHVELTKKYPDIVPVKLQDQLIMPGMIDGHHHLTQSFAKSLAYGEPSEIFKRIWVPLESNLNEQFVYLCTKLAALESLRGGFTTVCDAGTRSEIGMQLMVRALEETGLRCVLSLICNDGRAHSTLELRQNILENAQIFIKSYKQHKNVHPSLAISIPEVASDDMLYEVSKLCANSNIIFQVHVNEHLASVERSIIQQGMRPLEHLAKVGALGPQTLIAHATMLTPSELLLLQRTDTAVSYNPVASQWKGNAVASAHLMHELNIRFALGTDATRADGFRLLDAAEATQKLIFGIPTGDCSTGGGWMWLDHATTAGAEAVGLSQLTGSISIGKQADFLIIDLDTPEFCTSQDITWDMVRLCQRDQIQAVFVGGRICLWQGWPLDWDAKELMCRMKVLTKKAIEASPIQKLHPTAEQHRQLHGQTSQQQSVHI | not soluble
12 | MAHHHHHHMNPHQVNPSDQIAELVVESPHFSFNCAHFIAFKGFRETLHGHNYNVSLKLRGYIQQDGYVIDFSILKEKLKRVCKQLDHHFILPMYSDVLNIQMLEDNFKIICEDKSEYSFPKRDCVQIPIKHSSTEEIGLYILNKIIEELGLPFLKARSVNYMEVTVSESPTQKATVHRNI | not soluble
13 | MGSDKIHHHHHHMMQTDQRILLVGTPSERLSRLCCIFEFLGEQIDIITIEKLSTCLQETRFRALVISIDNMSADALKLVASQYPWQPILLFGHVGELQVSNVLGHIEEPLNYPQLTELLHFCQVYGQVKRPQVPTSANQTKLFRSLVGRSDGIANVRHLISQVATSDATVLVLGQSGTGKEVVARNIHYLSERRDGPFIPVNCGAIPPELLESELFGHEKGSFTGAISSRKGRFELAEGGTLFLDEIGDMPLQMQVKLLRVLQERVFERVGGTKTINADVRVVAATHRDLETMISSNEFREDLYYRLNVFPIEMPALSERKDDVPLLLQELVSRVYNEGRGKVRFTQRAIESLKEHAWSGNVRELSNLVERLTILYPGGLVDVNDLPIKYRHIDVPEYSVELSEEQQERDALASIFTSEEPVEIPETRFPSELPPEGVNLKDLLAELEIDMIRQALEQQDNVVARAAEMLGIRRTTLVEKMRKYGMTKE | not soluble
